The record followed here is paper PMC8729806, “Chaperones mainly suppress primary nucleation during formation of functional amyloid required for bacterial biofilm formation†” (Chemical Science, 2021).

Assay [1] concerns the target CsgA from E. coli (residues 21-151), without its signal sequence (E. coli) (UniProt P28307).
For assay [2], the target named is Full-length FapC (residues 25-250) from Pseudomonas sp. UK4, without its signal sequence (Pseudomonas sp. UK4).
The target of assay [3] is CsgA from E. coli (residues 21-151), without its signal sequence (E. coli, UniProt P28307 21-151). The experiment in a line: cell-based or functional assay.
Sequence of CsgA from E. coli (residues 21-151), without its signal sequence (P28307 21-151): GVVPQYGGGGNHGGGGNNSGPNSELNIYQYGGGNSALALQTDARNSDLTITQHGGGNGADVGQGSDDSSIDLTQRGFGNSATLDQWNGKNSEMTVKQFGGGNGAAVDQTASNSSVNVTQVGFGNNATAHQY

Sequence of Full-length FapC (residues 25-250) from Pseudomonas sp. UK4, without its signal sequence (Pseudomonas sp. UK4) (P0DXF5 25-250 limits assumed): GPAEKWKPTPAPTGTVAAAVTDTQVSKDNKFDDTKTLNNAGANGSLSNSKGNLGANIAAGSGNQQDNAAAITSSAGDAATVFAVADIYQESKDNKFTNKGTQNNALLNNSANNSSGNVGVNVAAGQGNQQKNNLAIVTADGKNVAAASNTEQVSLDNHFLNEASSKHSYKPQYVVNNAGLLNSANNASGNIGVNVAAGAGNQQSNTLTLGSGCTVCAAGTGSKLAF
Sequence of CsgA from E. coli (residues 21-151), without its signal sequence (E. coli) (P28307 21-151): as the sequence (P28307 21-151) above

Consider “Bri2 BRICHOS monomer (M-Bri2) (domain or fragment)”, for which, in assay [1], the fold reduction of the primary nucleation rate constant kn of spontaneous CsgA fibrillation (ThT kinetics, Amylofit), by 1 μM Bri2 monomer (fold reduction) is 1000. In assay [2], this molecule showed a fold reduction of the primary nucleation rate constant kn of spontaneous FapC fibrillation (ThT kinetics, Amylofit), by 6 μM Bri2 monomer (fold reduction) of 40. In the case of “Bri2 BRICHOS oligomer (O-Bri2) (from UniProt Q9Y287 137-231) (domain or fragment)”, the fold reduction of the primary nucleation rate constant kn of spontaneous CsgA fibrillation (ThT kinetics, Amylofit), by 1 μM Bri2 oligomer (fold reduction) in assay [1] was found to be 100000. Also, the fold reduction of the primary nucleation rate constant kn of spontaneous FapC fibrillation (ThT kinetics, Amylofit), by 6 μM Bri2 oligomer (fold reduction) in assay [2] turned out to be 10. For “DNAJB6 mutant F91L, used as pseudowildtype (from UniProt O75190 1-326) (natural protein)”, the fold reduction of the primary nucleation rate constant kn of spontaneous CsgA fibrillation (ThT kinetics, Amylofit), by 0.12 μM DNAJB6 (fold reduction) in assay [1] amounted to 1e+07. In assay [2], this molecule showed a fold reduction of the primary nucleation rate constant kn of spontaneous FapC fibrillation (ThT kinetics, Amylofit), by 0.6 μM DNAJB6 (fold reduction) of 1000.

B1: S100A9 (natural protein, human, UniProt P06702 1-114, looked up)
chain: MTCKMSQLERNIETIINTFHQYSVKLGHPDTLNQGEFKELVRKDLQNFLKKENKNEKVIEHIMEDLDTNADKQLSFEEFIMLMARLTWASHEKMHEGDEGPGHHHKPGLGEGTP
modifications: Alexa Fluor 546 label (peptide array only)
Molecule B1 returned a fold reduction of the primary nucleation rate constant kn of spontaneous FapC fibrillation (ThT kinetics, Amylofit), at 50 μM S100A9 (fold reduction) in assay [2] of 6. Also, the “fold reduction of the primary nucleation rate constant kn of spontaneous CsgA fibrillation (ThT kinetics, Amylofit), at 4 μM S100A9” value in assay [3] amounted to 20 fold reduction.

B2: CsgC (natural protein, UniProt P52107 9-110, looked up)
chain: ALSSQITFNTTQQGDVYTIIPEVTLTQSCLCRVQILSLREGSSGQSQTKQEKTLSLPANQPIALTKLSLNISPDDRVKIVVTVSDGQSLHLSQQWPPSSEKS
modifications: Alexa Fluor 546 label (peptide array only)
For B2, the “fold reduction of the primary nucleation rate constant kn of spontaneous CsgA fibrillation (ThT kinetics, Amylofit), by 1 μM CsgC” value in assay [3] was roughly 100000 fold reduction.
